One assay has as its target sc16a_human SEC16A (UniProt O15027).
A further assay deals with sc16a_mouse Sec16a (UniProt E9QAT4).
UniProt E9QAT4, sequence (E9QAT4 whole entry): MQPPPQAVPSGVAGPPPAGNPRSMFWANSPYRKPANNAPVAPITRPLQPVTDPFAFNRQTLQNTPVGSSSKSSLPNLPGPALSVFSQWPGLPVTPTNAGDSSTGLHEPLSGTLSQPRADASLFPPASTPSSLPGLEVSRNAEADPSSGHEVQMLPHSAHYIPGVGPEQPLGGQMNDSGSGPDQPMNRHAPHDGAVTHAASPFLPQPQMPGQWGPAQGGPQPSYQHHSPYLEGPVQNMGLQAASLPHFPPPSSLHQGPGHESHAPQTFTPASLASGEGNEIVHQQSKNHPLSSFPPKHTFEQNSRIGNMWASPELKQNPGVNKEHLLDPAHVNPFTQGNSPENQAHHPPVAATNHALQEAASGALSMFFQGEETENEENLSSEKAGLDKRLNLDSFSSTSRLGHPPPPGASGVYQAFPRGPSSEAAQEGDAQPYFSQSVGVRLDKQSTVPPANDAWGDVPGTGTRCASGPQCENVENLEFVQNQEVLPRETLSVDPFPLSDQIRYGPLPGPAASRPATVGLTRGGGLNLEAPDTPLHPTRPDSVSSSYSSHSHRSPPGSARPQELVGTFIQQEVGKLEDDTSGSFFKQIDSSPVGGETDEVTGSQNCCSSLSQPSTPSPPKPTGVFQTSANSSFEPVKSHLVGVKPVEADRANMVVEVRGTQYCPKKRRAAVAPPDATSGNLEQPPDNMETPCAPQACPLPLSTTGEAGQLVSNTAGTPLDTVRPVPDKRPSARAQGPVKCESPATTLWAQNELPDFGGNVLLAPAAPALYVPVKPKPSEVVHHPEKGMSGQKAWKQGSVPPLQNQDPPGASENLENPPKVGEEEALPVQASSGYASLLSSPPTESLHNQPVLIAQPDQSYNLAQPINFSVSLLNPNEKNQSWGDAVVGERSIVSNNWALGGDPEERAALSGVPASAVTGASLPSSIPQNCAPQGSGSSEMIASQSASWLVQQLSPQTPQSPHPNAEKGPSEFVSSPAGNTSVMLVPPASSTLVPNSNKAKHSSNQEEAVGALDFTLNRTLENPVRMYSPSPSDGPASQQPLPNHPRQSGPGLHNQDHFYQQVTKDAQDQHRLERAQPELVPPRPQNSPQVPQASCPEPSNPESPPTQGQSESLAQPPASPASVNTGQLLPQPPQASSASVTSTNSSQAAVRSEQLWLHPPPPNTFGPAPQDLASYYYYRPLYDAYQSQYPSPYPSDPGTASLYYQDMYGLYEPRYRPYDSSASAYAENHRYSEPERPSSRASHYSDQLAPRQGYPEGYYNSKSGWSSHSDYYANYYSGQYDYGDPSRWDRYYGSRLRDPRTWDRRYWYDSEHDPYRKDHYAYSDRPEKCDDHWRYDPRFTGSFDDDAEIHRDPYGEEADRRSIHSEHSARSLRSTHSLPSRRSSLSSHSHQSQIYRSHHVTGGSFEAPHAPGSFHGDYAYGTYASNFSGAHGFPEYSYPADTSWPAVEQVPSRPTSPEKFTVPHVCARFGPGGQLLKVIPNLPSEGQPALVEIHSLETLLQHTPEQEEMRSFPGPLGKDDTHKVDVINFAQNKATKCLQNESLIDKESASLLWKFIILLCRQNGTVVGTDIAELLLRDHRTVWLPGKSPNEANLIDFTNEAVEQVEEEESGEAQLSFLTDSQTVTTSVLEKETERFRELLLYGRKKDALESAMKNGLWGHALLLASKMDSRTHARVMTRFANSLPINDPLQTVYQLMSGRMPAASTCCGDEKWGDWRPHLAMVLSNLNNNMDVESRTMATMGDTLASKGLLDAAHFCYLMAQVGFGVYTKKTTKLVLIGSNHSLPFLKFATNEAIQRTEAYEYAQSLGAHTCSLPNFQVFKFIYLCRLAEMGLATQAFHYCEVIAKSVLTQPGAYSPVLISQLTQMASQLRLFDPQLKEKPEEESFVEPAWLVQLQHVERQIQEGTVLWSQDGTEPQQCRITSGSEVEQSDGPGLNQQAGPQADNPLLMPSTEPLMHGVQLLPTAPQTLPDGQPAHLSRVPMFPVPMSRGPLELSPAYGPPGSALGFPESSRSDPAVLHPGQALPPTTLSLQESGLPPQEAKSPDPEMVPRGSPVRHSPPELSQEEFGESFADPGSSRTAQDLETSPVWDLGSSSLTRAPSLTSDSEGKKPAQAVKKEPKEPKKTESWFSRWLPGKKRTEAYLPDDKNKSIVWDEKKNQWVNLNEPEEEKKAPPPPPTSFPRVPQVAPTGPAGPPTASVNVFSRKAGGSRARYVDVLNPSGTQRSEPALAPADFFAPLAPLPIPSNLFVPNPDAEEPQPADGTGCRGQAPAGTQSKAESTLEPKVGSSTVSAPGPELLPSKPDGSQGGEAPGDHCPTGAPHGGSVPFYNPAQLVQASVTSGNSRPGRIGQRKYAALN

UniProt O15027, sequence (O15027 whole entry): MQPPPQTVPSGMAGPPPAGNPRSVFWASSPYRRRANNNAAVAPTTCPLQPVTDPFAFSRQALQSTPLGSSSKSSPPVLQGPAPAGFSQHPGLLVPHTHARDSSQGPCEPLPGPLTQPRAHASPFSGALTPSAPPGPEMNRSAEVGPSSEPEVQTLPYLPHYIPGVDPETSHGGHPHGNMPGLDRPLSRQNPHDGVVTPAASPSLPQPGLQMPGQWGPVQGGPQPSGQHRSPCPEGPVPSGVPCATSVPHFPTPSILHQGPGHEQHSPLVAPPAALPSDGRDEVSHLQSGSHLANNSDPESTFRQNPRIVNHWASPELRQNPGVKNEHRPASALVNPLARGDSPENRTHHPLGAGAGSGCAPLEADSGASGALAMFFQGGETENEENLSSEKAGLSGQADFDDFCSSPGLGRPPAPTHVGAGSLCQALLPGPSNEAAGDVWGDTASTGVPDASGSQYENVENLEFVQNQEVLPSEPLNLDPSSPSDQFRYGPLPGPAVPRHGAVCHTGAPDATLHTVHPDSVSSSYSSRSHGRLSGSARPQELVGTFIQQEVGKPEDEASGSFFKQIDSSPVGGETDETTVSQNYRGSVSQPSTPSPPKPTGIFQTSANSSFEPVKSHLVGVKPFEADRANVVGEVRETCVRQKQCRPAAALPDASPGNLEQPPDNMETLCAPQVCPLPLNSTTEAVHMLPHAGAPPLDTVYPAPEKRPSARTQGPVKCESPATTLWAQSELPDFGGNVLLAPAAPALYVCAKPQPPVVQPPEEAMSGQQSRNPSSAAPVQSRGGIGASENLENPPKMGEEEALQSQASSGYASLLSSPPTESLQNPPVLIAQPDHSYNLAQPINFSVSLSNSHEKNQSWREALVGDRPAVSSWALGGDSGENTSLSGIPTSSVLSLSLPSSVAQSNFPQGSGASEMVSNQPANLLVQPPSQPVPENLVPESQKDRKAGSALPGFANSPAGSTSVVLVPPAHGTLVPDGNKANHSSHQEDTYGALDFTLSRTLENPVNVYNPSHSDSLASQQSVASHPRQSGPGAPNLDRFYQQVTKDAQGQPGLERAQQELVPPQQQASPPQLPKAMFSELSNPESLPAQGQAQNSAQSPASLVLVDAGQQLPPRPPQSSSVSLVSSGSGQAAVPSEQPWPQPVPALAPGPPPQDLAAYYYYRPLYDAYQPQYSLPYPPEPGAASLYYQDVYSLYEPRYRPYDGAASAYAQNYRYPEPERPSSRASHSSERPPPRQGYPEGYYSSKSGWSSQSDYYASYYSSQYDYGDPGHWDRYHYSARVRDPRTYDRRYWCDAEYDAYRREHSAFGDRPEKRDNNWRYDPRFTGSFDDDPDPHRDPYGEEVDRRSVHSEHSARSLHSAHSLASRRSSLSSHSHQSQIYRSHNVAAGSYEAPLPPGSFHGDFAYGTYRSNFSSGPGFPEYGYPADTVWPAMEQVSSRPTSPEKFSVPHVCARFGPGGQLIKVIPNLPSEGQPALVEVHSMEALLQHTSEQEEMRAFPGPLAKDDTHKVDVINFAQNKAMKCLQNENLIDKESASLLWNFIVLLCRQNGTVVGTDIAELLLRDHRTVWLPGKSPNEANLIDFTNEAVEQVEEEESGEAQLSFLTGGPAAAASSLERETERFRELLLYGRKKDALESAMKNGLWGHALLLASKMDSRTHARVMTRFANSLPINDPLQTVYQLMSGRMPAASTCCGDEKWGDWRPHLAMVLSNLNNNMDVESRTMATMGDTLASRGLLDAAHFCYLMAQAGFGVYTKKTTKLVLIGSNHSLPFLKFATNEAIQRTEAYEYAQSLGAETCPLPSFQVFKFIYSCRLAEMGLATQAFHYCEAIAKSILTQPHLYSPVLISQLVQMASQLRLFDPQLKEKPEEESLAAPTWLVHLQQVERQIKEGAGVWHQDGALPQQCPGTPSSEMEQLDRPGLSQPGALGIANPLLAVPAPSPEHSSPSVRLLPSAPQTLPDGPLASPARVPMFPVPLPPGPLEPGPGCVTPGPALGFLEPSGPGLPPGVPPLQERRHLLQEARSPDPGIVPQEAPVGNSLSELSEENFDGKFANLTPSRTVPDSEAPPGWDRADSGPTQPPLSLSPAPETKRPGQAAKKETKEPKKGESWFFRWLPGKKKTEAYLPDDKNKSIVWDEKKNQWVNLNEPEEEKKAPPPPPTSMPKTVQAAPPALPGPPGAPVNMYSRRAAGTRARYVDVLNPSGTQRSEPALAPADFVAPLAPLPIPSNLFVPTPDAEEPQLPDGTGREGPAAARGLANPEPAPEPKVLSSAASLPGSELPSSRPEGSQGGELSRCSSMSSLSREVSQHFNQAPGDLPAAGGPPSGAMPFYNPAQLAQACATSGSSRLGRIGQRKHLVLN

Consider “Leucine-rich repeat serine/threonine-protein kinase 2 (Homo sapiens), Q5S007 K1347A”, for which the “effect of a mutation on the interaction” value in the assay with sc16a_human SEC16A and in the assay with sc16a_mouse Sec16a was “disrupting interaction strength” each time.
As to “Leucine-rich repeat serine/threonine-protein kinase 2 (Homo sapiens), Q5S007 R1441C”, the “effect of a mutation on the interaction” value is listed as “decreasing interaction strength” in the assay with sc16a_human SEC16A and “disrupting interaction strength” with sc16a_mouse Sec16a.

Source of the values: IntAct's records for PubMed 25201882.
